According to patent US20100041074A1 (FORERUNNER PHARMA RESEARCH, published 2010):

Experiments:
[1] = target: T1, GRP78 localized on the cell surface of human cancer cells (human, UniProt P11021 19-654); assay: FACS on DU145 cells, antibody 10 µg/ml
T1 construct: Endogenous GRP78 on untransfected human cancer cell lines (DU145, 22Rv1, LoVo, LNcap, MCF7 and others); also called GRP78 on the surface of DU145 cells; surface-located GRP78

[2] = target: T2, GRP78 expressed in human cells (cell lysate) (human, UniProt P11021 19-654); assay: western blot, DU145 cell lysate, antibody 2 µg/ml
T2 construct: Endogenous GRP78 in lysates of human cell lines (DU145, MRC5 and others) after SDS-PAGE and blotting; also called GRP78 expressed in DU145 cells; GRP78 protein in cell lysates

[3] = target: T3, GST fused GRP78 protein (GST-GRP78) purified from E. coli (human, UniProt P11021 19-654); assay: western blot, GST fused GRP78 protein (0.1 ug), antibody 2 µg/ml
T3 construct: also called GRP78-GST fused protein; not shown: glutathione S-transferase (GST) encoded by the E. coli expression vector pGEX-6P-1 (Amersham Pharmacia), with the vector

[4] = target: T4, GST-GRP78 (376-415) (human, UniProt G3I8R9 376-415 (Cricetulus griseus entry)); assay: western blot of GST fused GRP78 fragments (345-385, 376-415, 406-445)
T4 construct: not shown: glutathione S-transferase (GST) encoded by the E. coli expression vector pGEX-6P-1, with the vector's linker

[5] = target: GRP78 expressed in hamster ovary cells (DG44), cell lysate (hamster, UniProt G3I8R9 19-654); assay: western blot of NP40 lysate of DG44 cells with GA-20 antibody (2 µg/ml)
[6] = target: T5, GRP78 expressed in mouse cells (Ba/F3, NIH3T3), cell lysate (mouse, UniProt P20029 20-655); assay: western blot of NP40 lysates of Ba/F3 and NIH3T3 cells with GA-20 antibody (2 µg/ml)
[7] = target: T6, GRP78 protein (amino acids 19-654) purified from E. coli (human, UniProt P11021 19-654); assay: ELISA, plate coated with GRP78 protein purified from E. coli, hybridoma culture supernatant
T6 construct: Cut from the GST fusion with PreScission Protease and gel filtered; also called glucose-regulated protein 78; BiP

[8] = target: T2, GRP78 expressed in human cells (cell …); assay: western blot of cell lysates of human cell lines with GD-17 antibody (2 µg/ml)
[9] = target: T5, GRP78 expressed in mouse cells (Ba/F3, …); assay: western blot of cell lysates of mouse cell lines with GD-17 antibody (2 µg/ml)
[10] = target: T1, GRP78 localized on the cell surface of …; assay: FACS on prostate cancer cell lines DU145 and 22Rv1, hybridoma culture supernatant
[11] = target: MBP-GRP78 (376-415) (human, UniProt G3I8R9 376-415 (Cricetulus griseus entry)); assay: ELISA, plate coated with MBP-GRP78 (376-415) (1 µg/ml), hybridoma culture supernatant
[12] = target: T3, GST fused GRP78 protein (GST-GRP78) …; assay: ELISA, plate coated with GST-GRP78 (1 µg/ml), HisTrap fractions diluted 40-fold, anti-flag detection
[13] = target: T1, GRP78 localized on the cell surface of …; assay: cell-based or functional assay
[14] = target: T3, GST fused GRP78 protein (GST-GRP78) …; assay: ELISA, plate coated with GST-GRP78 (1 µg/ml), anti-flag detection; same value told for specimens stored at 4° C., left at 37° C. overnight, or frozen and thawed

B1: GA-20 antibody (antibody, IgM, V domains shown)
VH: EVQLQQSGPELVKPGASVKISCKTSGYTFTEYTMHWVKQSHGKSLEWIGGINPNNGGTSYNQKFKGKATLTVDKSSSTAYMELRSLTSEDSAVYYCAREKYGNYYAMDYWGQGTSVTVSS
VL: DIVMSQSPSSLAVSAGEKVTMSCKSSQSLLNSRTRKNYLAWYQQKPGQSPKLLIYWASTRESGVPDRFTGSGSGTDFTLTISSVQAEDLAVYYCKQSYNLRTFGGGTKLEIK
notes: Mouse monoclonal from hybridoma, subtype M (IgM); light chain cloned with a kappa primer
- binding result [1]: binds
- binding result [2]: binds
- binding result [3]: binds
- binding result [4]: binds
- binding result [5]: binds
- binding result [6]: binds
- binding result [7]: binds

B2: GD-17 antibody (antibody, IgG1, V domains shown)
VH: QVQLQQSGAELARPGASVKLSCKASGYTFTSYWMHWVKQRPGQGLEWIGAIYPGDGDTRYTQKFKGKATLTADKSSSTAYMQLSSLASEDSAVYYCASGITAVADYWGQGTTLTVSS
VL: DVVMTQTPLSLPVSLGDQASISCRSSQSLVHSNGNTYLHWYLQKPGQSPKLLIYKVSNRFSGVPDRFSGSGSGTDFTLKISRVEAEDLGVYFCSQSTHVPLTFGAGTKLELK
notes: Mouse monoclonal from hybridoma, subtype G1 (IgG1)
- binding result [8]: binds
- binding result [9]: binds
- binding result [10]: binds
- binding result [11]: binds

B3: GC-18 antibody (antibody, IgG1, V domains shown)
VH: DVRLQESGPGQVKPSQTVSLTCSVTGYSITNGNHWWNWIRQVSGSKLEWIGYISSSGSTDSNPSLKSRISITRDTSKNQLFLQLNSVTTEDIATYYCARGYYFDYWGQGTTLTVSS
VL: DIVLTQSPASLAVSLGQSVTISCRASESVEYYGTSLMQWYQQKPGQPPKLLIYATSNVESGVPARFSGSGSGTDFSLNIHPVEEDDIAMYFCQQSRKLPSTFGGGTKLEIK
notes: as for B2
- binding result [10]: binds
- binding result [11]: binds

B4: toxin-labeled GA-20 single-chain Fv antibody (GA20-PE40) (scFv)
scFv: MDHHHHHHHHHHKLEVQLQQSGPELVKPGASVKISCKTSGYTFTEYTMHWVKQSHGKSLEWIGGINPNNGGTSYNQKFKGKATLTVDKSSSTAYMELRSLTSEDSAVYYCAREKYGNYYAMDYWGQGTSVTVSSGGGGSGGGGSGGGGSDIVMSQSPSSLAVSAGEKVTMSCKSSQSLLNSRTRKNYLAWYQQKPGQSPKLLIYWASTRESGVPDRFTGSGSGTDFTLTISSVQAEDLAVYYCKQSYNLRTFGGGTKLEIKEFGGAPEFPKPSTPPGSSGLEGGSLAALTAHQACHLPLETFTRHRQPRGWEQLEQCGYPVQRLVALYLAARLSWNQVDQVIRNALASPGSGGDLGEAIREQPEQARLALTLAAAESERFVRQGTGNDEAGAANADVVSLTCPVAAGECAGPADSGDALLERNYPTGAEFLGDGGDVSFSTRGTQNWTVERLLQAHRQLEERGYVFVGYHGTFLEAAQSIVFGGVRARSQDLDAIWRGFYIAGDPALAYGYAQDQEPDARGRIRNGALLRVYVPRSSLPGFYRTSLTLAAPEAAGEVERLIGHPLPLRLDAITGPEEEGGRLETILGWPLAERTVVIPSAIPTDPRNVGGDLDPSSIPDKEQAISALPDYASQPGKPPDYKDDDDKKDEL
notes: also called GA20scFv-PE40; toxin-labeled GA-20 scFv antibody
- binding result [12]: binds

B5: toxin-labeled GD17 single-chain antibody (GD17scFv-PE40) (scFv)
scFv: MDHHHHHHHHHHKLQVQLQQSGAELARPGASVKLSCKASGYTFTSYWMHWVKQRPGQGLEWIGAIYPGDGDTRYTQKFKGKATLTADKSSSTAYMQLSSLASEDSAVYYCASGITAVADYWGQGTTLTVSSGGGGSGGGGSGGGGSDVVMTQTPLSLPVSLGDQASISCRSSQSLVHSNGNTYLHWYLQKPGQSPKLLIYKVSNRFSGVPDRFSGSGSGTDFTLKISRVEAEDLGVYFCSQSTHVPLTFGAGTKLELKEFGGAPEFPKPSTPPGSSGLEGGSLAALTAHQACHLPLETFTRHRQPRGWEQLEQCGYPVQRLVALYLAARLSWNQVDQVIRNALASPGSGGDLGEAIREQPEQARLALTLAAAESERFVRQGTGNDEAGAANADVVSLTCPVAAGECAGPADSGDALLERNYPTGAEFLGDGGDVSFSTRGTQNWTVERLLQAHRQLEERGYVFVGYHGTFLEAAQSIVFGGVRARSQDLDAIWRGFYIAGDPALAYGYAQDQEPDARGRIRNGALLRVYVPRSSLPGFYRTSLTLAAPEAAGEVERLIGHPLPLRLDAITGPEEEGGRLETILGWPLAERTVVIPSAIPTDPRNVGGDLDPSSIPDKEQAISALPDYASQPGKPPDYKDDDDKKDEL
notes: also called GA17_scFv-PE40
- cytotoxic activity, EC50 on MCF7 and 22Rv1 cells [13]: 2 to 4 nM
- EC50 [14]: ~1.3 nM

B6: GD-4 antibody (antibody, IgG1, V domains shown)
VH: EVQLVETGGGLVQPKGSLKLSCAASGFTFNTNAMNWVRQAPGKGLEWVARIRSKSNNYAAYYADSVKDRFTISRDDSQSMLYLQMNNLKTEDTAMYYCVREGYGYSLYFDYWGQGTTLTVSS
VL: DIVMTQSPTFLAVTASKKVTINCTASESLYSSKHKVHYLAWYQKKPDQSPKLLIYGASNRYIGVPDRFTGSGSGTDFTLTISSVQVEDLTHYYCAQFYSYPLTFGAGTKLELK
notes: as for B2
- binding result [10]: binds
- binding result [11]: binds
